For assay [1], the target named is Sos1-X′ peptide (Homo sapiens). Briefly: NMR.
Assay [2] addresses Sos1-X′ peptide (Homo sapiens). Briefly: NMR. This is another data set of the same source.

Where two headings read alike, the source gives them in different places.

B1: Grb2 N-SH3 2-59, P62993 (protein)
chain: EAIAKYDFKATADDELSFKRGDILKVLNEESDQNWYKAELNGKDGFIPKNYIEMKPHP
For the molecule B1, the Kd in assay [1] was determined as 4.6 µM; in assay [2], 4.9 µM.

Source of the values: article PMC6934455, “Molecular Dynamics model of peptide-protein conjugation: case study of covalent complex between Sos1 peptide and N-terminal SH3 domain from Grb2” (Scientific Reports, 2019).
